# Numbering of substitutions follows the chain as printed. Names may count otherwise.
# B1: ScMqnA (chorismate dehydratase MqnA) (Streptomyces coelicolor A3(2)) (protein)
# chain: MDNSRTRPRVGHIQFLNCLPLYWGLARTGTLLDFELTKDTPEKLSEQLVRGDLDIGPVTLVEFLKNADDLVAFPDIAVGCDGPVMSCVIVSQVPLDRLDGARVALGSTSRTSVRLAQLLLSERFGVQPDYYTCPPDLSLMMQEADAAVLIGDAALRANMIDGPRYGLDVHDLGALWKEWTGLPFVFAVWAARRDYAEREPVITRKVHEAFLASRNLSLEEVEKVAEQAARWEAFDEDTLAKYFTTLDFRFGAPQLEAVTEFARRVGPTTGFPADVKVELLKP
# B2: ScMqnA (chorismate dehydratase MqnA) (Streptomyces coelicolor A3(2); N17A) (protein)
# chain: B1 chain with N17A
# B3: ScMqnA (chorismate dehydratase MqnA) (Streptomyces coelicolor A3(2); Y242F) (protein)
# chain: B1 chain with Y242F
# Substrate: C=C(O[C@@H]1C=C(C(=O)O)C=C[C@H]1O)C(=O)O
# Test: purified protein
# Conditions: 100 mM Tris/HCl pH 7.5, 22 °C, 5 min, 0.05 μM enzyme
Protein,Km,Vmax,kcat
B1,121 ± 38 µM,0.458 µmol/min/mg,0.24 ± 0.02 s⁻¹
B2,257 ± 87 µM,0.473 µmol/min/mg,0.25 ± 0.02 s⁻¹
B3,377 ± 106 µM,1.06 µmol/min/mg,0.56 ± 0.06 s⁻¹

# Reference: publication PMC9672406
